Molecular target: MC3R-RlucII (human, UniProt P41968 1-323)
Experiment: cell-based or functional assay

Sequence of MC3R-RlucII (P41968 whole entry): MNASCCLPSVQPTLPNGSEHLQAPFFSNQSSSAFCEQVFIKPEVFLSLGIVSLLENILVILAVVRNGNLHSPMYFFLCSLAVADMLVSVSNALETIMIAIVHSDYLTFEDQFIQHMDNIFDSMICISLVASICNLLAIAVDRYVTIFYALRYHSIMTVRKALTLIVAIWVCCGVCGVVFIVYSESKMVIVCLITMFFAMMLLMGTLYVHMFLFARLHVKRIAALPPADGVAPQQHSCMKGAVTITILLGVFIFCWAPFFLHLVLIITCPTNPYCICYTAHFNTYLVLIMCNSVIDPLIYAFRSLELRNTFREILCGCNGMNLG

NDP-αMSH-stimulated cAMP production (GloSensor, area under the curve) in HEK293 cells cotransfected with GPR83 and MC3R (1:1 ratio), against MC3R alone: 43%
B1: GPR83-Venus (receptor, human, UniProt Q9NYM4-1 17-423, looked up)
chain: TEPHEGRADEQSAEAALAVPNASHFFSWNNYTFSDWQNFVGRRRYGAESQNPTVKALLIVAYSFIIVFSLFGNVLVCHVIFKNQRMHSATSLFIVNLAVADIMITLLNTPFTLVRFVNSTWIFGKGMCHVSRFAQYCSLHVSALTLTAIAVDRHQVIMHPLKPRISITKGVIYIAVIWTMATFFSLPHAICQKLFTFKYSEDIVRSLCLPDFPEPADLFWKYLDLATFILLYILPLLIISVAYARVAKKLWLCNMIGDVTTEQYFALRRKKKKTIKMLMLVVVLFALCWFPLNCYVLLLSSKVIRTNNALYFAFHWFAMSSTCYNPFIYCWLNENFRIELKALLSMCQRPPKPQEDRPPSPVPSFRVAWTEKNDGQRAPLANNLLPTSQLQSGKTDLSSVEPIVTMS

From article PMC11250262, “Understanding the genetic complexity of puberty timing across the allele frequency spectrum” (Nature Genetics, 2024)
